# Measurements published in article doi:10.1101/2020.08.31.274639.
# Biological target: SARS-CoV-2 main protease 3CLpro (SARS-CoV-2)
# Test: crystal structure
substance,measurement,value
SARS-CoV-2 main protease 3CLpro (enzyme),stoichiometry N,2
